According to patent US20120122239A1:

Tests used:
[1] = molecular target: glycosylated human proBNP (HyTest, Turku, Finland; Catalog No. 8GOB2) (human); test: sandwich CMIA, capture 15F11, 43.3 pM, against human NT-proBNP
[2] = molecular target: human pro B-type natriuretic peptide (HyTest, Turku, Finland; Catalog No. 8PRO8) (human); test: as above
[3] = molecular target: human NT-pro B-type natriuretic peptide (HyTest, Turku, Finland; Catalog No. 8NT1) (human); test: sandwich CMIA, capture 15F11, analyte 577.4 pM
Chain of human NT-pro B-type natriuretic peptide (HyTest, Turku, Finland; Catalog No. 8NT1) (human) (chain, as listed by the source): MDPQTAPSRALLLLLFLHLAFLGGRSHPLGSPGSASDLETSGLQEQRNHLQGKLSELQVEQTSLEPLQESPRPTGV

[4] = molecular target: glycosylated human proBNP (HyTest, Turku, Finland; Catalog No. 8GOB2) (human); test: sandwich CMIA, capture 15F11, analyte 577.4 pM
[5] = molecular target: human pro B-type natriuretic peptide (HyTest, Turku, Finland; Catalog No. 8PRO8) (human); test: sandwich CMIA, capture 15F11, analyte 577.4 pM
[6] = molecular target: human NT-pro B-type natriuretic peptide (HyTest, Turku, Finland; Catalog No. 8NT1) (human); test: sandwich CMIA, capture 15C4, analyte 43.3 pM
[7] = molecular target: glycosylated human proBNP (HyTest, Turku, Finland; Catalog No. 8GOB2) (human); test: sandwich CMIA, capture 15C4, analyte 43.3 pM
[8] = molecular target: human pro B-type natriuretic peptide (HyTest, Turku, Finland; Catalog No. 8PRO8) (human); test: sandwich CMIA, capture 15C4, analyte 43.3 pM
[9] = molecular target: human NT-pro B-type natriuretic peptide (HyTest, Turku, Finland; Catalog No. 8NT1) (human); test: sandwich CMIA, capture 15F11, analyte 43.3 pM
[10] = molecular target: glycosylated human proBNP (HyTest, Turku, Finland; Catalog No. 8GOB2) (human); test: sandwich CMIA, capture 15F11, analyte 43.3 pM
[11] = molecular target: human pro B-type natriuretic peptide (HyTest, Turku, Finland; Catalog No. 8PRO8) (human); test: sandwich CMIA, capture 15F11, analyte 43.3 pM
[12] = molecular target: human NT-pro B-type natriuretic peptide (HyTest, Turku, Finland; Catalog No. 8NT1) (human); test: sandwich CMIA, capture 15F11, analyte 0.0 pM (blank)
[13] = molecular target: glycosylated human proBNP (HyTest, Turku, Finland; Catalog No. 8GOB2) (human); test: as above
[14] = molecular target: human pro B-type natriuretic peptide (HyTest, Turku, Finland; Catalog No. 8PRO8) (human); test: as above
[15] = molecular target: human NT-pro B-type natriuretic peptide (HyTest, Turku, Finland; Catalog No. 8NT1) (human); test: sandwich CMIA, capture 15F11, analyte 288.7 pM
[16] = molecular target: glycosylated human proBNP (HyTest, Turku, Finland; Catalog No. 8GOB2) (human); test: sandwich CMIA, capture 15F11, analyte 288.7 pM
[17] = molecular target: human pro B-type natriuretic peptide (HyTest, Turku, Finland; Catalog No. 8PRO8) (human); test: sandwich CMIA, capture 15F11, analyte 288.7 pM
[18] = molecular target: glycosylated human proBNP (HyTest, Turku, Finland; Catalog No. 8GOB2) (human); test: sandwich CMIA, capture 15F11, 86.6 pM, against human NT-proBNP
[19] = molecular target: human pro B-type natriuretic peptide (HyTest, Turku, Finland; Catalog No. 8PRO8) (human); test: as above
[20] = molecular target: glycosylated human proBNP (HyTest, Turku, Finland; Catalog No. 8GOB2) (human); test: sandwich CMIA, capture 15F11, 577.4 pM, against human NT-proBNP
[21] = molecular target: human pro B-type natriuretic peptide (HyTest, Turku, Finland; Catalog No. 8PRO8) (human); test: as above
[22] = molecular target: human NT-pro B-type natriuretic peptide (HyTest, Turku, Finland; Catalog No. 8NT1) (human); test: sandwich CMIA, capture 15F11, analyte 86.6 pM
[23] = molecular target: glycosylated human proBNP (HyTest, Turku, Finland; Catalog No. 8GOB2) (human); test: sandwich CMIA, capture 15F11, analyte 86.6 pM
[24] = molecular target: human pro B-type natriuretic peptide (HyTest, Turku, Finland; Catalog No. 8PRO8) (human); test: sandwich CMIA, capture 15F11, analyte 86.6 pM
[25] = molecular target: human NT-pro B-type natriuretic peptide (HyTest, Turku, Finland; Catalog No. 8NT1) (human); test: sandwich CMIA, capture 15C4, analyte 577.4 pM
[26] = molecular target: glycosylated human proBNP (HyTest, Turku, Finland; Catalog No. 8GOB2) (human); test: sandwich CMIA, capture 15C4, analyte 577.4 pM
[27] = molecular target: human pro B-type natriuretic peptide (HyTest, Turku, Finland; Catalog No. 8PRO8) (human); test: sandwich CMIA, capture 15C4, analyte 577.4 pM
[28] = molecular target: human pro B-type natriuretic peptide (HyTest, Turku, Finland; Catalog No. 8PRO8) (human); test: sandwich CMIA, capture 15F11, against human NT-proBNP
[29] = molecular target: glycosylated human proBNP (HyTest, Turku, Finland; Catalog No. 8GOB2) (human); test: sandwich CMIA, capture 15F11, 288.7 pM, against human NT-proBNP
[30] = molecular target: human pro B-type natriuretic peptide (HyTest, Turku, Finland; Catalog No. 8PRO8) (human); test: as above
[31] = molecular target: human NT-pro B-type natriuretic peptide (HyTest, Turku, Finland; Catalog No. 8NT1) (human); test: sandwich CMIA, capture 15C4, analyte 288.7 pM
[32] = molecular target: glycosylated human proBNP (HyTest, Turku, Finland; Catalog No. 8GOB2) (human); test: sandwich CMIA, capture 15C4, analyte 288.7 pM
[33] = molecular target: human pro B-type natriuretic peptide (HyTest, Turku, Finland; Catalog No. 8PRO8) (human); test: sandwich CMIA, capture 15C4, analyte 288.7 pM
[34] = molecular target: human NT-pro B-type natriuretic peptide (HyTest, Turku, Finland; Catalog No. 8NT1) (human); test: sandwich CMIA, capture 15C4, analyte 0.0 pM (blank)
[35] = molecular target: glycosylated human proBNP (HyTest, Turku, Finland; Catalog No. 8GOB2) (human); test: as above
[36] = molecular target: human pro B-type natriuretic peptide (HyTest, Turku, Finland; Catalog No. 8PRO8) (human); test: as above
[37] = molecular target: human NT-pro B-type natriuretic peptide (HyTest, Turku, Finland; Catalog No. 8NT1) (human); test: sandwich CMIA, capture 15C4, analyte 86.6 pM
[38] = molecular target: glycosylated human proBNP (HyTest, Turku, Finland; Catalog No. 8GOB2) (human); test: sandwich CMIA, capture 15C4, analyte 86.6 pM
[39] = molecular target: human pro B-type natriuretic peptide (HyTest, Turku, Finland; Catalog No. 8PRO8) (human); test: sandwich CMIA, capture 15C4, analyte 86.6 pM

Chain of human pro B-type natriuretic peptide (HyTest, Turku, Finland; Catalog No. 8PRO8) (human) (chain, as listed by the source): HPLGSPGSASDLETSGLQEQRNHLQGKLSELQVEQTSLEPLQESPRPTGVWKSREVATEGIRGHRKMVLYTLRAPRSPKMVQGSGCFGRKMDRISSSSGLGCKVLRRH

## anti-human NT proBNP/anti-human proBNP monoclonal antibody 15C4 (HyTest, Turku, Finland)
[1]
  % Cross-reactivity: -0.4%
[2]
  % Cross-reactivity: 0.7%
[3]
  Analyte rlus: 662000 rlus
[4]
  Analyte rlus: 1450 rlus
[5]
  Analyte rlus: 3360 rlus
[6]
  Analyte rlus: 1980 rlus
[7]
  Analyte rlus: 1800 rlus
[8]
  Analyte rlus: 2180 rlus
[9]
  Analyte rlus: 21200 rlus
[10]
  Analyte rlus: 1260 rlus
[11]
  Analyte rlus: 1490 rlus
[12]
  Analyte rlus: 1340 rlus
[13]
  Analyte rlus: 1340 rlus
[14]
  Analyte rlus: 1340 rlus
[15]
  Analyte rlus: 312000 rlus
[16]
  Analyte rlus: 1580 rlus
[17]
  Analyte rlus: 2190 rlus
[18]
  % Cross-reactivity: 1.2%
[19]
  % Cross-reactivity: 0.4%
[20]
  % Cross-reactivity: 0%
[21]
  % Cross-reactivity: 0.3%
[22]
  Analyte rlus: 57200 rlus
[23]
  Analyte rlus: 2010 rlus
[24]
  Analyte rlus: 1540 rlus
[25]
  Analyte rlus: 2080 rlus
[26]
  Analyte rlus: 1790 rlus
[27]
  Analyte rlus: 1960 rlus
[28]
  % Cross-reactivity: < 1%
[29]
  % Cross-reactivity: 0.1%
[30]
  % Cross-reactivity: 0.3%
[31]
  Analyte rlus: 2060 rlus
[32]
  Analyte rlus: 1860 rlus
[33]
  Analyte rlus: 1880 rlus
[34]
  Analyte rlus: 1940 rlus
[35]
  Analyte rlus: 1940 rlus
[36]
  Analyte rlus: 1940 rlus
[37]
  Analyte rlus: 2000 rlus
[38]
  Analyte rlus: 1880 rlus
[39]
  Analyte rlus: 1820 rlus

## anti-human NT-proBNP/anti-human proBNP labeled monoclonal antibody 24E11 (HyTest, Turku, Finland)
[1]
  % Cross-reactivity: -0.4%
[2]
  % Cross-reactivity: 0.3%
[3]
  Analyte rlus: 357000 rlus
[4]
  Analyte rlus: 892 rlus
[5]
  Analyte rlus: 1240 rlus
[6]
  Analyte rlus: 786 rlus
[7]
  Analyte rlus: 781 rlus
[8]
  Analyte rlus: 718 rlus
[9]
  Analyte rlus: 7380 rlus
[10]
  Analyte rlus: 863 rlus
[11]
  Analyte rlus: 904 rlus
[12]
  Analyte rlus: 886 rlus
[13]
  Analyte rlus: 886 rlus
[14]
  Analyte rlus: 886 rlus
[15]
  Analyte rlus: 124000 rlus
[16]
  Analyte rlus: 906 rlus
[17]
  Analyte rlus: 1090 rlus
[18]
  % Cross-reactivity: 0.2%
[19]
  % Cross-reactivity: 0.3%
[20]
  % Cross-reactivity: 0%
[21]
  % Cross-reactivity: 0.1%
[22]
  Analyte rlus: 20800 rlus
[23]
  Analyte rlus: 918 rlus
[24]
  Analyte rlus: 938 rlus
[25]
  Analyte rlus: 850 rlus
[26]
  Analyte rlus: 770 rlus
[27]
  Analyte rlus: 735 rlus
[28]
  % Cross-reactivity: < 1%
[29]
  % Cross-reactivity: 0%
[30]
  % Cross-reactivity: 0.2%
[31]
  Analyte rlus: 814 rlus
[32]
  Analyte rlus: 725 rlus
[33]
  Analyte rlus: 834 rlus
[34]
  Analyte rlus: 821 rlus
[35]
  Analyte rlus: 821 rlus
[36]
  Analyte rlus: 821 rlus
[37]
  Analyte rlus: 699 rlus
[38]
  Analyte rlus: 751 rlus
[39]
  Analyte rlus: 747 rlus
